Results as given in patent publication US11306156.
Each block holds one substance with its values, some of them ahead of it.

Columns and labels:
[1] = molecular target: tissue factor (TF) antigen (UniProt P13726); experiment: SPR, Fab captured on anti-penta-His, TF as analyte; against wild-type D3H44 Fab; batch C
[2] = molecular target: tissue factor (TF) antigen (UniProt P13726); experiment: SPR, Fab captured on anti-penta-His, TF as analyte, 1:1 fit; batch C
[3] = molecular target: D3H44 light chain T178R with N-terminal HA or FLAG tag; experiment: LCCA (SPR tag readout), L1:L2 DNA 1:3, normalized to 1:1; competing light chain m13
[4] = molecular target: tissue factor (TF) antigen (UniProt P13726); experiment: SPR (ProteOn XPR36), Fab captured on anti-penta-His, TF injected, 1:1 fit
[5] = molecular target: tissue factor (TF) antigen (UniProt P13726); experiment: SPR, against wild-type D3H44 Fab
[6] = molecular target: tissue factor (TF) antigen (UniProt P13726); experiment: SPR, Fab captured by anti-penta-His, TF injected, 1:1 fit
[7] = molecular target: tissue factor (TF) antigen (UniProt P13726); experiment: SPR; log change of median KD against wild-type D3H44 Fab
[8] = molecular target: tissue factor (TF) antigen (UniProt P13726); experiment: SPR (ProteOn XPR36): His-tagged Fab captured on anti-penta-His surface, TF as analyte, 1:1 fit; value estimated (*) from the Fab differing only in the L chain tag
[9] = molecular target: tissue factor (TF) antigen (UniProt P13726); experiment: SPR (ProteOn), Fab captured by anti-penta-His, TF as analyte, 1:1 fit; estimated value taken from the Fab differing only in L chain tag
[10] = molecular target: tissue factor (TF) antigen (UniProt P13726); experiment: SPR (ProteOn), against wild-type D3H44 Fab; estimated value taken from the Fab differing only in L chain tag
[11] = molecular target: D3H44 light chain F116A_Q124R_L135V_T178R; experiment: LCCA, SPR tag readout, L1:L2 DNA 1:3 normalized to 1:1; competitor m24
[12] = molecular target: D3H44 light chain F116A_Q124R_L135V; experiment: as above
[13] = molecular target: D3H44 light chain Q124E_L135W_Q160E_T180E; experiment: LCCA, SPR tag readout, L1:L2 DNA 1:3 normalized to 1:1; competitor m25
[14] = molecular target: D3H44 light chain Q124E_L135W_Q160E_T180E; experiment: LCCA, SPR tag readout, L1:L2 DNA 1:3 normalized to 1:1; competitor m23
[15] = molecular target: D3H44 light chain Q124E_L135W_Q160E_T180E; experiment: LCCA, SPR tag readout, L1:L2 DNA 1:9 normalized to 1:1; competitor m23
[16] = molecular target: D3H44 light chain F116A_Q124R_L135V_T178R; experiment: LCCA, SPR tag readout, L1:L2 DNA 1:9 normalized to 1:1; competitor m24
[17] = molecular target: D3H44 light chain F116A_Q124R_L135V; experiment: as above
[18] = molecular target: D3H44 light chain Q124E_L135W_Q160E_T180E; experiment: LCCA, SPR tag readout, L1:L2 DNA 1:9 normalized to 1:1; competitor m25
[19] = molecular target: D3H44 light chain Q38E_Q124E_Q160E_T180E; experiment: LCCA, SPR tag readout, L1:L2 DNA 1:3 normalized to 1:1; competitor m21
[20] = molecular target: D3H44 light chain Q38E_Q124E_Q160E_T180E; experiment: LCCA, SPR tag readout, L1:L2 DNA 1:9 normalized to 1:1; competitor m21
[21] = molecular target: D3H44 light chain Q38R_S131K; experiment: LCCA, SPR tag readout, L1:L2 DNA 1:3 normalized to 1:1; competitor m19
[22] = molecular target: D3H44 light chain Q38R_S131K; experiment: LCCA, SPR tag readout, L1:L2 DNA 1:9 normalized to 1:1; competitor m19

Substance: H1L1 Fab heterodimer of LCCA sets 9721, 9720, 9723, 9722, 9725, 9716, 9712 and 9708 (D3H44 Fab, H1 L143E_K145T_S188L, L1 Q124R_Q160K_T178R)
Kd [6]: 0.24 nM
Change in median values of KD of h1l1 Fab heterodimer compared to wild type (-(log(KD design)-log(KD wt))) [7]: -0.19 log units

Substance: H1L1 Fab heterodimer of LCCA sets 9078, 9077 and 9076 (D3H44 Fab, H1 H172T_Q179K, L1 Q124E_N137K_Q160E_S174R_T180E)
Kd [6]: 0.15 nM
Change in median values of KD of h1l1 Fab heterodimer compared to wild type (-(log(KD design)-log(KD wt))) [7]: 0.01 log units

Substance: D3H44 H1L1 Fab heterodimer of LCCA set 9079 (H1 K145T_Q179E; L1 S131K)
Change in median values of KD of h1|1 Fab heterodimer compared to wild type (-(log(KD design)-log(KD wt))) [8]: -0.01 log units
Kd [8]: 0.16 nM

Substance: D3H44 Fab heterodimer, H1L1 of LCCA set 9683 (H: L143E_K145T_Q179E; L: T178R)
Kd [9]: 0.3 nM
Change in KD with respect to wild type (-(log(KD design) - log(KD wt))) [10]: -0.28

Substance: D3H44 Fab heavy chain A139G_Q179K_V190A
H1L1:H1L2 normalized median ratio [11]: 13%
H1L1:H1L2 normalized median ratio [12]: 15%
H1L1:H1L2 normalized median ratio [13]: 85%
H1L1:H1L2 normalized median scalar value ln(r1/f1) [13]: 1.71
H1L1:H1L2 normalized median ratio [14]: 87%
H1L1:H1L2 normalized median scalar value ln(r1/f1) [14]: 1.88
H1L1:H1L2 normalized median ratio [15]: 86%
H1L1:H1L2 normalized median scalar value ln(r1/f1) [15]: 1.85
H1L1:H1L2 normalized median ratio [16]: 14%
H1L1:H1L2 normalized median ratio [17]: 9%
H1L1:H1L2 normalized median ratio [18]: 91%
H1L1:H1L2 normalized median scalar value ln(r1/f1) [18]: 2.31

Substance: D3H44 Fab heavy chain Q39R_H172R_S186R
H2L2:H2L1 normalized median ratio [19]: 94%
H2L2:H2L1 normalized median ratio [20]: 93%
H2L2:H2L1 normalized median ratio [21]: 6%
H2L2:H2L1 normalized median ratio [22]: 7%

Continued, values first:

change in median KD compared to wild type, -(log(KD design)-log(KD wt)) [1]: 0.49
Kd [2]: 0.05 nM
Substance: D3H44 Fab heterodimer, H1 S186R / L1 Q124E_T178E_T180E (H1L1 Fab of LCCA Set # 9889 and 9890)

H1L1:H1L2 normalized median ratio [3]: 79%
H1L1:H1L2 normalized median scalar value ln(r1/f1) [3]: 1.31
Substance: D3H44 Fab heavy chain L143D_K145T_Q179E with C-terminal ABD2-His6 tag

Kd [4]: 0.13 nM
Change in median values of KD of h1l1 Fab heterodimer compared to wild type (-(log(KD design)-log(KD wt))) [5]: 0.07
Substance: H1L1 Fab heterodimer of LCCA Set # 9068 (D3H44 Fab; H1 F174G, L1 S131T_S176F_T178F)

Kd [4]: 0.16 nM
Change in median values of KD of h1l1 Fab heterodimer compared to wild type (-(log(KD design)-log(KD wt))) [5]: 0
Substance: H1L1 Fab heterodimer of LCCA Set # 9070 (D3H44 Fab; H1 F174G, L1 S131T_S176F_T178Y)

change in median KD compared to wild type, -(log(KD design)-log(KD wt)) [1]: 0.1
Kd [2]: 0.12 nM
Substance: D3H44 Fab heterodimer, H1 S186R / L1 S131E (H1L1 Fab of LCCA Set # 9981 and 9985)

Change in median values of KD of h1|1 Fab heterodimer compared to wild type (-(log(KD design)-log(KD wt))) [8]: 0.04 log units
Kd [8]: 0.14 nM
Substance: D3H44 H1L1 Fab heterodimer of LCCA set 9635 (H1 L143E_K145T_Q179D; L1 Q124R_T178R)

H1L1:H1L2 normalized median ratio [19]: 7%
H1L1:H1L2 normalized median ratio [20]: 10%
H1L1:H1L2 normalized median ratio [21]: 93%
H1L1:H1L2 normalized median ratio [22]: 90%
H1L1:H1L2 normalized median scalar value ln(r1/f1) [22]: 2.16
Substance: D3H44 Fab heavy chain Q39E_K145T_Q179E

Kd [9]: 0.15 nM
Change in KD with respect to wild type (-(log(KD design) - log(KD wt))) [10]: 0.02
Substance: D3H44 Fab heterodimer, H1L1 of LCCA set 9651 (H: L143E_K145T_Q179E; L: Q124R_Q160K_T178R)
